Assay results from patent publication US20260055369A1 (H LEE MOFFITT CANCER CENTER AND RESEARCH INSTITUTE, published 2026).
Numbering of substitutions follows the chain as printed.

Tests used:
[1] = molecular target: T1, Notch1 on CHO-K1 N1-Gal4 fluorescent reporter cells (UniProt P46531 19-2555, limits assumed); test: cell-based or functional assay
[2] = molecular target: T2, mouse Notch1 (EGF6-13, residues 221-526), biotinylated (mouse, UniProt Q01705 221-526, Biotinylated in vitro by BirA at the C-terminal BAP-tag (tag not in the letters).); test: SPR steady-state binding isotherm, biotinylated mNotch1 (EGF6-13) on a streptavidin chip, DLL4 variant as analyte, response normalized to the maximum (100%)
T2 construct: Immobilised on a streptavidin chip for SPR; also called mNotch1 EGF6-13; mNotch1 (6-13)
T2 sequence: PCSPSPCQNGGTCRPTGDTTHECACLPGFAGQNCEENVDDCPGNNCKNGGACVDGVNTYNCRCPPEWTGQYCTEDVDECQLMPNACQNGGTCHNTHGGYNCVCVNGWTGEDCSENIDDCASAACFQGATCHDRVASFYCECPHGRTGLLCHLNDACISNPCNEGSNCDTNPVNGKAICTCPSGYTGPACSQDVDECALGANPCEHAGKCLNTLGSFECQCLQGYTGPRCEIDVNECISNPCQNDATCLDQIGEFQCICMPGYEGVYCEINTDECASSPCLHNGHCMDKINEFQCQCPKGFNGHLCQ
From the text: Extended Data FIG. 5. Quantitation of mNotch1 binding to DLL4 variants, ligand adsorption, and Notch surface expression. a, SPR binding isotherms were fitted to a 1:1 binding model to determine the binding affinity between mNotch1 (6-13) and each DLL4 variant. b, Determination of plate adsorption for WT DLL4 and Delta^MAX by ELISA. Data represent mean values±s.d. of three biological replicates. c, Binding assay of WT DLL4 and Delta^MAX tetramers to Notch1 overexpressing CHO-K1 N1-Gal4 cells was measured by flow cytometry. Data represent mean values±s.d. of three biological replicates. d, The level of Notch1 expression on the surface of cell lines used in this study was determined by flow cytometry. Data represent mean values±s.d. of three biological replicates. e, Percentage of CD8⁺ T cells expressing Notch1 (upper graph) and Notch2 (bottom graph) on cell surface determined by flow cytometry after stimulation with K32-WT DLL4, K32-Delta^MAX, or K32 for 96 hours. Data represent mean values±s.e.m. of three biological replicates. Delta^MAX statistics are referred to WT DLL4. *P<0.05, ****P<0.0001 (Two-way ANOVA).
Equilibrium dissociation constants were determined by surface plasmon resonance using a Biacore T200 instrument (GE Healthcare). […]

[3] = molecular target: Notch2 on U2OS Notch2-Gal4 luciferase reporter cells (human, UniProt Q04721 26-2471); test: cell-based or functional assay
[4] = molecular target: Notch1 on U2OS hNotch1-Gal4 luciferase reporter cells (human, UniProt P46531 19-2555); test: cell-based or functional assay
Sequence of Notch1 on U2OS hNotch1-Gal4 luciferase reporter cells (P46531 19-2555): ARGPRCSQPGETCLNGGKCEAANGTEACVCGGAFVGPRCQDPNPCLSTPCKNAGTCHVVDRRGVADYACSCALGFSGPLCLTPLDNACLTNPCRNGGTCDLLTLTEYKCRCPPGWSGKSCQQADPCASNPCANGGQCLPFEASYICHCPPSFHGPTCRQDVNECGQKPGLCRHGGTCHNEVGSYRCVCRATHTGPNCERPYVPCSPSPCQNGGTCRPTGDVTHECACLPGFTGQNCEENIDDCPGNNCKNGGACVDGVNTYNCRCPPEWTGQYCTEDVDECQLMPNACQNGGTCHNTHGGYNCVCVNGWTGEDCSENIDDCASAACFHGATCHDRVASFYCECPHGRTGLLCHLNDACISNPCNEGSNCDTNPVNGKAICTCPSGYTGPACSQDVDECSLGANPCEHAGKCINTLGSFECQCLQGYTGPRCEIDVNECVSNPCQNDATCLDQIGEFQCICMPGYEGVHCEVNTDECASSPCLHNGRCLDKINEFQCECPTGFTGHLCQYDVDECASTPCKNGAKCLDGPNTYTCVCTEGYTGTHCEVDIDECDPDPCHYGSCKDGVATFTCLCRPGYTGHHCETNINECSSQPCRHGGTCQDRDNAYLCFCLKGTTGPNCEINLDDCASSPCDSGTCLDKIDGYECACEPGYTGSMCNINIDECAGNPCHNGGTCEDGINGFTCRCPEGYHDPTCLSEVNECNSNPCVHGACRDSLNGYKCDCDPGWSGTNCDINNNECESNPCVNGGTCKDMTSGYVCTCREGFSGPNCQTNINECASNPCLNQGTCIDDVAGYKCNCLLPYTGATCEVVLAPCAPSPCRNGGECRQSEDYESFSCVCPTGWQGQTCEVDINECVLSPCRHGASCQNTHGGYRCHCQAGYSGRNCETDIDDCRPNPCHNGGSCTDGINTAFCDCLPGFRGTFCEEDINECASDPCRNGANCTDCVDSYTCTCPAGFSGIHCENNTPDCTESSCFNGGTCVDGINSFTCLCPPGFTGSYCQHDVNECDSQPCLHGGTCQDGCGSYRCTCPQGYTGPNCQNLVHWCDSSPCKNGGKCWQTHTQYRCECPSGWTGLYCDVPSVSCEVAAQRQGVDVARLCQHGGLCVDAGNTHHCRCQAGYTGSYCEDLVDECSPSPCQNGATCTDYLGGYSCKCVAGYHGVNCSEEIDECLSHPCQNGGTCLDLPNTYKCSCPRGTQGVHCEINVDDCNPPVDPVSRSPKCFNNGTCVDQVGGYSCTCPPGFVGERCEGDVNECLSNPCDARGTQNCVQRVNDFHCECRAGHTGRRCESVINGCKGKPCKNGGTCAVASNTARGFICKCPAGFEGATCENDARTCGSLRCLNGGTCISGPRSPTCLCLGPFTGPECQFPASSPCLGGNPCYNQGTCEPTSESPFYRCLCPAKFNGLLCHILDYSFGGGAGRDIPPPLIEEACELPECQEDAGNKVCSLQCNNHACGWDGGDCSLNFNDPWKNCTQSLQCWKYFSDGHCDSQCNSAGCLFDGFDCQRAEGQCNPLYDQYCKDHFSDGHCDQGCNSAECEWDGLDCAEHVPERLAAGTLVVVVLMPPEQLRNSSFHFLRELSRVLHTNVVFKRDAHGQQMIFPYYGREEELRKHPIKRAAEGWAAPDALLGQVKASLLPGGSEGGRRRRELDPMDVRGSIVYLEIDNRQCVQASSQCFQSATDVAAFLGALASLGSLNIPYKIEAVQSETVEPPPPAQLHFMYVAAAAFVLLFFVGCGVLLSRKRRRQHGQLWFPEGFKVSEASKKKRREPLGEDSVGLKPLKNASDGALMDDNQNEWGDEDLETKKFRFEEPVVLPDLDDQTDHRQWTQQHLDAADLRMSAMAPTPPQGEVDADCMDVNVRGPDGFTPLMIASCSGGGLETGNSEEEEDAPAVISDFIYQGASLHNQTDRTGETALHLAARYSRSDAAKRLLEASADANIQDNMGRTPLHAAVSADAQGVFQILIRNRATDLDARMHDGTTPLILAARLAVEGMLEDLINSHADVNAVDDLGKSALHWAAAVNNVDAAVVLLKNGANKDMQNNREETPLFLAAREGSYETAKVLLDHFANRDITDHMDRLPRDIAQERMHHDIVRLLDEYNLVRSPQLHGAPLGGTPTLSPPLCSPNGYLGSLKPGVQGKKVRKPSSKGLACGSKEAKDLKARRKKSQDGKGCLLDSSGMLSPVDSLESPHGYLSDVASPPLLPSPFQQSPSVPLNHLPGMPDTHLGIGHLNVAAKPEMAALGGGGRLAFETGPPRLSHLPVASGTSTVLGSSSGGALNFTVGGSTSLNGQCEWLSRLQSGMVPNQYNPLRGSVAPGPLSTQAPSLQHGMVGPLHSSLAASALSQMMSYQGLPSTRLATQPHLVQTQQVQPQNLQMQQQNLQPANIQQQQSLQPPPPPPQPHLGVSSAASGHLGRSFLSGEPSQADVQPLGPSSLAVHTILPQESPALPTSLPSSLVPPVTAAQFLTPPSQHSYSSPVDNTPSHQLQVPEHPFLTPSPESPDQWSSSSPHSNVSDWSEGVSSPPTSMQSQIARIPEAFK

[5] = molecular target: Notch3 on U2OS Notch3-Gal4 luciferase reporter cells (human, UniProt Q9UM47 40-2321); test: cell-based or functional assay
Sequence of Notch3 on U2OS Notch3-Gal4 luciferase reporter cells (Q9UM47 40-2321): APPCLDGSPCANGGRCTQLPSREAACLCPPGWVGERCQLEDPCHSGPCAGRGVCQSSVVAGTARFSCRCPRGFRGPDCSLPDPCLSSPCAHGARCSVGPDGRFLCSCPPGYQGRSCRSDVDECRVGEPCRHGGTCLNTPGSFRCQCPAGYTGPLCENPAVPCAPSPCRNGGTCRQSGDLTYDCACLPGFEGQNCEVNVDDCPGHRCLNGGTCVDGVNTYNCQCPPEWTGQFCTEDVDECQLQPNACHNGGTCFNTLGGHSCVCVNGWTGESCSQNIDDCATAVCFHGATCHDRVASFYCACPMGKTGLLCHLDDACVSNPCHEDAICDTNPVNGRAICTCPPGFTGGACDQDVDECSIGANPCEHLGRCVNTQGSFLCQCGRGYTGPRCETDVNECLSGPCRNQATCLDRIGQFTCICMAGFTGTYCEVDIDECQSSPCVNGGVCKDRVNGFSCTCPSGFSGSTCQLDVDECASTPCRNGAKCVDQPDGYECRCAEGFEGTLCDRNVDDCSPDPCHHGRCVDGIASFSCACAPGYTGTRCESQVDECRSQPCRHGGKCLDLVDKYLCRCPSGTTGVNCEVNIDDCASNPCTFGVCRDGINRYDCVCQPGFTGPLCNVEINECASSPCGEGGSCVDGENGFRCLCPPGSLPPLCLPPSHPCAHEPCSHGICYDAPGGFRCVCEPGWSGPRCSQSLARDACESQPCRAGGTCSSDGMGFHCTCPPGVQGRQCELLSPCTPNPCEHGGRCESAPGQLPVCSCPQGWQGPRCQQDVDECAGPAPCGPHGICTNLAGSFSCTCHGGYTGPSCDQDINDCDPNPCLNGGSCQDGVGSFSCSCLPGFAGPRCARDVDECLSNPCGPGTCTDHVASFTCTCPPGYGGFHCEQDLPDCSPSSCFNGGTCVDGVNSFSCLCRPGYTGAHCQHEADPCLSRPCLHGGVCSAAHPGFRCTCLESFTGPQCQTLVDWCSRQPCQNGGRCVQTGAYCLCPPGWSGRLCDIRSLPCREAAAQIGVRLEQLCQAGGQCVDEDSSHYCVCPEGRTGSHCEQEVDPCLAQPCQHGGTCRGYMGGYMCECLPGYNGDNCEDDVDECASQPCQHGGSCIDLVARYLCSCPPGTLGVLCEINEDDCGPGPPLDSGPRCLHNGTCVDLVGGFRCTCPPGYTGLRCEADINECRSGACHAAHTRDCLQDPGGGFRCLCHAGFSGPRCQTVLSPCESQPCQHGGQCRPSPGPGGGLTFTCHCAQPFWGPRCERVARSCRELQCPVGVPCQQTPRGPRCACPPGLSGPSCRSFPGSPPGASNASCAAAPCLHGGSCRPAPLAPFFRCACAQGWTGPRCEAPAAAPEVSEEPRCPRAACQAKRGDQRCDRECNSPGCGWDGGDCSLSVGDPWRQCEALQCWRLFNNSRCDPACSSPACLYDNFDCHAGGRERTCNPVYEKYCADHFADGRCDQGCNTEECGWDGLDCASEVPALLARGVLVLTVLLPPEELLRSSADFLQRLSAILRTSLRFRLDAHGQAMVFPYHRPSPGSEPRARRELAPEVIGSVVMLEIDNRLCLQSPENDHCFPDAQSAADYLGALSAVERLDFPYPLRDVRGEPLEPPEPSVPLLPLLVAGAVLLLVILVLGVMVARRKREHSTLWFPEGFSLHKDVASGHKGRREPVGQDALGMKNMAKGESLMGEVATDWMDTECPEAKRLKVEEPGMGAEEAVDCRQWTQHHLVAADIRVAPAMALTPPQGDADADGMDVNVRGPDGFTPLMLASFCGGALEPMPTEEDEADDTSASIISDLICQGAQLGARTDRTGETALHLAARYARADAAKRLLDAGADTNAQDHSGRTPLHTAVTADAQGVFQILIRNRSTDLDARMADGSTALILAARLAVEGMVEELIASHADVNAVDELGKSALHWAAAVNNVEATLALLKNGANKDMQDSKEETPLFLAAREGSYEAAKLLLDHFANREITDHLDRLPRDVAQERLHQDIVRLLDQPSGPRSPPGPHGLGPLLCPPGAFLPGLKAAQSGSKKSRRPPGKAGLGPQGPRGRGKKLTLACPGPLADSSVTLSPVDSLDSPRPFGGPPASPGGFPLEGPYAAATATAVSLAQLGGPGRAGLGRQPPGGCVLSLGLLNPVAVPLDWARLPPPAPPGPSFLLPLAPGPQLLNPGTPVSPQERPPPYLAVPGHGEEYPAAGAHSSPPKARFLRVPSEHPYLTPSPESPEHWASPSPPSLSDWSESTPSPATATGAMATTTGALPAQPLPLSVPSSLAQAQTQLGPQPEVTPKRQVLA

[6] = molecular target: T1, Notch1 on CHO-K1 N1-Gal4 fluorescent …; test: flow cytometry, ligand tetramers on Notch1-overexpressing CHO-K1 N1-Gal4 cells

T1 sequence (P46531 19-2555 limits assumed): as the sequence (P46531 19-2555) above

B1: human wild-type DLL4 (N-EGF5, residues 27-400), non-biotinylated (ligand)
chain: SGVFQLQLQEFINERGVLASGRPCEPGCRTFFRVCLKHFQAVVSPGPCTFGTVSTPVLGTNSFAVRDDSSGGGRNPLQLPFNFTWPGTFSLIIEAWHAPGDDLRPEALPPDALISKIAIQGSLAVGQNWLLDEQTSTLTRLRYSYRVICSDNYYGDNCSRLCKKRNDHFGHYVCQPDGNLSCLPGWTGEYCQQPICLSGCHEQNGYCSKPAECLCRPGWQGRLCNECIPHNGCRHGTCSTPWQCTCDEGWGGLFCDQDLNYCTHHSPCKNGATCSNSGQRSYTCTCRPGYTGVDCELELSECDSNPCRNGGSCKDQEDGYHCLCPPGYYGLHCEHSTLSCADSPCFNGGSCRERNQGANYACECPPNFTGSNCEHHHHHHHH
[1]
  EC50 of Notch1 activation, fluorescent reporter cells, ligand non-specifically adsorbed to plates: 2.3 ng/mm^2

B2: DLL4.v1 (N-EGF5), non-biotinylated (ligand)
chain: B1 chain with G2S, F81L, I117F, H168Y, L180P
notes: also called human DLL4 with the five E12 mutations (Site 1+Site 2)
[2]
  EC50 (read off the curve): ~100 nM

B3: WT DLL4 (N-EGF5, residues 27-400), C-terminally biotinylated (ligand)
chain: SGVFQLQLQEFINERGVLASGRPCEPGCRTFFRVCLKHFQAVVSPGPCTFGTVSTPVLGTNSFAVRDDSSGGGRNPLQLPFNFTWPGTFSLIIEAWHAPGDDLRPEALPPDALISKIAIQGSLAVGQNWLLDEQTSTLTRLRYSYRVICSDNYYGDNCSRLCKKRNDHFGHYVCQPDGNLSCLPGWTGEYCQQPICLSGCHEQNGYCSKPAECLCRPGWQGRLCNECIPHNGCRHGTCSTPWQCTCDEGWGGLFCDQDLNYCTHHSPCKNGATCSNSGQRSYTCTCRPGYTGVDCELELSECDSNPCRNGGSCKDQEDGYHCLCPPGYYGLHCEHSTLSCADSPCFNGGSCRERNQGANYACECPPNFTGSNCEGLNDIFEAQKIEWHE
modifications: biotin on the C-terminal BAP-tag (BirA ligase)
[1]
  EC50 of Notch1 activation, fluorescent reporter cells, biotinylated ligand on streptavidin plates: 16 nM

B4: DLL4^MAX (N-EGF5, residues 27-400), C-terminally biotinylated (ligand)
chain: B3 chain with G2S, F81L, I117F, H168Y, L180P, N231P, T245L, F254Y, S275R, Q279P
modifications: biotin on the C-terminal BAP-tag (BirA ligase)
notes: Used coupled to streptavidin (plates, beads, or as tetramers for cell staining); also called biotinylated Delta^MAX; C-terminally anchored Delta^MAX; not shown: His-tag
[3]
  luciferase reporter signalling at 50 nM immobilised ligand, against WT DLL4: 2.5 fold
[1]
  EC50 of Notch1 activation, fluorescent reporter cells, biotinylated ligand on streptavidin plates: 1.7 nM
  Notch1 reporter activity with 25 µm coated beads, against DLL4 microbeads: 4.5 fold
[4]
  increase in Notch1 activation relative to control, Delta^MAX-coated streptavidin beads: 21 fold
  increase in Notch1 activation relative to control, oriented coupling on streptavidin plates: 50 fold
  luciferase reporter signalling at 50 nM immobilised ligand, against WT DLL4: 2 fold
[5]
  luciferase reporter signalling at 50 nM immobilised ligand, against WT DLL4: 3 fold
[6]
  fold increase of MFI compared to WT DLL4: 4.7 fold
